The nanobody polyreactivity screen of Harvey et al. (2022)

Test: yeast display, Sf9 membrane polyspecificity reagent, FACS + sequencing; frameworks hold sequencing errors
Method in brief: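 After 36–48 hours of galactose induction, yeast (Saccharomyces cerevisiae BJ5465) displaying a synthetic nanobody library were stained at 4 °C for 1 hour with 10% biotinylated, detergent-solubilized Sf9 membrane reagent. Streptavidin microbeads enriched the stained cells before FACS sorting into low and high (top ~1%) gates on anti-HA and streptavidin fluorescence. Each clone's polyreactivity label reflects its gate of origin.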

Row | Sequence | polyreactivity (PSR sort gate)
1 | QEQLQESGGGQVQAGGSLLLSCAASGNIIRYYYMGWYRQAPGKERELVAAINVGAITYYADSVKGRFSISRDNAKNTVYLPMNSLTPEDTAVYYCAVDQYSEAYYDYWGQGTQATVSS | high polyreactivity
2 | QVQLVESGGGLVQAGGSLRLSCAASGLTFGYYTMGWYRQAPGKERELVAAITYSGGSTYYADSVKGRFTISRDNAKNTVYLQMNSLKPEDTAVYYCAAEGPVYTTYEYWGQGTQVTVSS | low polyreactivity
3 | QVQLVESGGGLVQAGGSLRLSCSASGFILLAYAMGWYRQAHGKERELVAAITSGGSTHYADSVKGRFTISRDNAKNTVYLQMNSLKPEDTAVYYCANDTVFRYSGNTYGYWGQGTQVTVSS | low polyreactivity
4 | QVQLQESGGLVQAGGSLRLSCAASGSISGRNVMGWYRQAPGKEREFVASITDGSSTNDADSVIGRFTISRDNAKNTVYLQMNSLKPKDTAVYYCAAYAHRAKSFGYWGRGTQVTVSS | low polyreactivity
5 | QVQLEESGGGLVQAGGSLRLAVLPPDLPSTLNDMGWYRQAPGKERELVAAITRGGSTNYADSVKGRFTISRDNAKNTVYLQMNSLKPEDTAVYYCAAPYAGWRDGGDYWGQGTQVTVSS | low polyreactivity
6 | QVQLVESGGGLVQAGGSLRLSCAASGFTFSKYAMGWYRQAPVKERELVATITRGGNTYYADSVKGRFTISRDNAKNTVYLQMNSLKPEDTAVYYCNTGRRNRLYDYDYWGQVTQVTVSS | high polyreactivity
7 | QVQLVESGGGLVQAGGSLRLSCAASGRTFSLYAMGWSRPAPGKERELVAAITRRGGSTYYADSVKGRFTMSRDNAKNTVYLQMNSLKPEDTAVYYCAADSGYPWELDYWGQGTEVTVSS | low polyreactivity
8 | QVQLVESGGGLVQAGGILRLSCAASGIIFNTNFMGWYRQAPGKERELVAAISRTNYADSVKGRFTISRDNAKNNVFLEMNSLHPEDTSVYDCIVELQYGRPGGQEFDYWGQGSQVTVSS | low polyreactivity
9 | QVQLVESGLGLVKAGGSLRLSCAASGNTFDHYVMVWSRQAPGKEPELVASITSGGSTNYADSVKGRFTISRDNAKNTVYLQMNSLKPEDTAVYYCAVSLSYWYEAFTTRIDYYYWGQGTQVTLSS | high polyreactivity
10 | QVQLVESGGGLVQAGGSLRLSCAASGRTSYTNAMGWYRQAPGKERELVAAINYSGGSTYYADSVKGRFTISRDNAKNTVYLQMNSLKPEDTAVSYCAAERYYWYTEMGYWGQGTQVTVSS | high polyreactivity
11 | QVQLVESGGGLVQAGGSLRLSCAASGLTFGRNAMGWYRQAPGKERELVAAISRSGGRTSYADSVKGRFTISRDYAKNTVYLQMNSLKPEDTSVYFCAALSDVYTHDYWGQGTQVTVSS | high polyreactivity
12 | QVQLVESGGGVVQAGGSLRLSCAASGSTFLLYDMGWYRQAPGKERELVARISSGDSTNYADSVKGRFTISRDNAKNTVYLLMNSLIPEDTAVYYCAAEGGVQEFDYWGQGTQVTVSS | low polyreactivity
13 | QVQLVESGGGLVQAGGSLRLSCAASGRIFRKYAMGWYRQAPGTERELVATITLRGGSTYYADSVKGRFTISRDNGKNTVYLQMNSLKPEDTAVYYCATDITPAISVEYDYWGQGTQVTVSS | high polyreactivity
14 | QVQLVESGGGLVQAGGSLRLSSAASGRIFKKNSMGWYRQAPGKERELVAAINWTGGSTYYADSVKGRFTISRDNAMNTVYLQLNSLKPEDTAFYYCAVGVYPSYRGPTFSTRRDYWGQGTQVTVSS | low polyreactivity
15 | QVQLVESGGGLVQAGGSLRLSCAASGRIIYRYAMGWYRQAPGKERELVAAIRYSGGRTYYADSVKGRFTISRDNAKNTVYLQMNSLKPEDTAVYYCAADGQWYYARFRGGDYENDYWGQGTQVTVSS | low polyreactivity
16 | QYQLVESGGGLVQAGGSLRLSCAASGSTFRANTMGWYRQAPGKERELVSTITRGTITKYADSVKGRFTISRDNAKNPVYLQMNSLKAEDTAVFDCAVDQAYVRRNWGYTGYVTYDHWGQGTQVTVSS | high polyreactivity
17 | QVQLVESGGGLVHAGGSLRLSCAASGRTFNGYVMGWYRQAPGKERELVAAITNRDGSTYYADSVKGRFTISRDNAKNTVYLQMYSLKPEDSAVYYCAAPVWLWADRYDSWGQGTQVTVSS | low polyreactivity
18 | QVQLVESGGGLVQAGGSLRLSCAASGSTFAINTMGSYREAPGKERELVAAISWSGGSTYYADSVKGRFTISRDNAKNTVYLQMNSLKPEDTAVYYCAARVPGWYVPGYNVYYWGQGTQVTVSS | high polyreactivity
19 | QVQLVESGGVLVQAGGSLRLSCAASGRIFWLNAMGWYRQAPGKEREFVASITYGSDSTYYADSVKGRFTISRDNAKNTVYLQMNSRTPEDTAVYYCNREGWHYGPYGYWGQGTQVTVSS | low polyreactivity
20 | QVQLVESGGGLVQAGGSLRLSCAASGSTFGKYAMGWSRPAPGKERELVAAITVNAGRTYYADSVKGRFTISRDNAKNTVYLQMNSLKPEDTAVYYCNADFFTIYDYWGQGTQVTVSS | high polyreactivity
21 | QVQLVESGGGLVQAGGSLRLSCAASGSTFILYAMGWYRHAPGKERELVAAISRSTGITYYADSVKGRFTISRDNAKNTVYLQMNSLKPEDTAGYYCAADAWGYNDYDASYSTGYEYWGQGTQVTVSS | high polyreactivity
22 | QVQLVESGGGLVQAGGSLRISCAASGINFSVNAMGWYRQAPGKERELVAAITYSGGSTYYADSVKGRFTISRDNAKNTVYLQMNSLKPEDTAVYYCAAETYSSGEWYDYWGQGTQVTVSS | high polyreactivity

Row | Sequence | polyreactivity (PSR sort gate)
23 | QVQLVESGGGLVQAGGRLRLSCAASGGIFSTYTRGWYRQEPGKERELVAAITTGNSTYYADSVKGRFTISRDNAKNTVYLQMNSLKPEDTAVYYCAADTIGYHYWYDYWGQGTQVTVSS | low polyreactivity
24 | QVQLVESGGGLVQAGGSLRLSCAASGFTFHSYAMGWYRQAPGKERELVAAISGRGGSTYYADSVKGRFTISRDNAKNTVYLQMNSLKPEDTAVYYCARYGYHDYGYWGQCTQVTVSS | high polyreactivity
25 | QVQLVESGGGLVQAGGSLRLSCAASGSISYFYAMGWYRQAPGKERELVAAINSGDDTYADSVKGRFTISRDNAKNTVYLQMNSLKPEDTAVYYCAVKYGGYESHYYRRPHYDYWGQGTQVTVSS | low polyreactivity
26 | QVQLVESGGGLVQAGGSLRLSCAASGITIYWYAMGWYRQAPGKERELVAAITRSVGSTYYADSVKGRFTISRDNAKNTVYLQMNSLKPEDTAVYYCAADFYYYGFDYWGQGTQVTVSS | low polyreactivity
27 | QVQLVESGGGLVQAGGSLRISCAASGLTFFRNAIGWYRQATGKERELVATITSTSSTNYADSVKVRFTISRDNSKNTVYLQMNSLKPEDTAVYYCAARTVGRKAGFDYWGQGTQVTVSS | high polyreactivity
28 | QVQLVESGGGLVQAGGSLRLSCAASGSIFSWYAMGWYRQAPGKERELVAAISGITGSTYYADSVKGRFTISRDNAKNTVYLQMNSLKPEDTAVYYCRALAGYASGMDYWGQGTQVTVSS | high polyreactivity
29 | QVQLVESGGGLVQAGGSIRLSCAASGFTIFLNAMGWYRQAPGKERELVAAITVSGSSTYYADSVKGRFTISRDNAKNTVYLQMNSLKPEETAVYYCNAEIYSPYYTYDYWGQGTQVTVSS | low polyreactivity
30 | QVQHVESGGGLVQAGGSLRLSCAAYGRTLDVNAMGWYRQAPGKERELVAAIDWGVGTTYYADSVKGRFTISRDNAKNTVYLQMNSLKPEDTAVYYCAVEVYYSVYGYPVQYYYWGQGTQVTVSS | high polyreactivity
31 | QDQLVESGGGLVQAGGSLRLSCSASGSTFIRNSKGWYRQATGKERELVAAITTDGSTDYADSVKGRFTISRDNAKNTVYLQMNSLKPEDTAVYYCNAEYRLDALSYDYWGQGTQVTVSS | low polyreactivity
32 | QVQLVESGGGLVQAGGSLRLSCAASGSIFAAYAMGWYRQAPGKERELVAAITSGGGTYYADSVKGRFTISRDNAKNTVYLQMNSLKPEDTAGYYCNAGNTYNRVIWPYYYWGQGTQVTVSS | high polyreactivity
33 | QVQLVESGGGLVQAGGSLRLSCAASGSTSVKYAMGWYRQAPGKERELVAAIRKRGDSTYYADSVKGRFTISRDNAKNTVYLQMNSLKPEDTAVYYCAAQYLRGRGYWGQGTQVTVSS | low polyreactivity
34 | QVQLVESGGGLVQAGGSLRLSCAASGRIFGGYAMGWYRQAPGKERELVAAITFRSGTTYYADSVKGRFTISRDNAKNTVYLQMNSLKPEDTAVYYCAARWGPYAFTYVRTYDYWGQGTQVTVSS | low polyreactivity
35 | QVQLVESGGGLVNAGGSLRLSCAASGSTFYLYHMGWYRQAPGKEREFFARITWSGGSTYYADSVKGRFTLSRDNAKNTVYLQMNSLKPEDTAVYYCNKVYGQRNSYPDYDYWGQGSQVTVSS | high polyreactivity
36 | QVQLVESGGGLVQAGGSLRLSCAASGSIFVYYAMGWYRQAPGKERELVAAINSGSITKYADSVKGRFTISRDNAKNTVYLQMNSLKPEYTAVYYCAARYDNTYRTETSYPRYYSWGQGTQVTVSS | high polyreactivity
37 | QVQLVESGGGLFQAGGSLRLSCAASGRILNINAMGWYRQAPGKERELVAAITWRGGRTFYADSVKGRFTISRDNAKNTVYLQMNSLKPEDTAVYYCAASSNTWYPTGYYWGQGTQVTVSS | high polyreactivity
38 | QVQVVESGGGLVKAGGSLRLSCDASGSTFRDYVMGWYRQAPGKERELVAAITGSGSSTYYADSVKGRFTISRDNAKNSVYLQMNSLKPEDTAVYYCAATWVVSYRVNRSYYWGQGTQVTVSS | low polyreactivity
39 | QLQLQESGGGLVQADGSLRLSCAASGSIFGYYYMGWYRQAPGKDRELVATINICGITNYADSVKGRFTISRDNAKNTVYLQMNSLKPDDTAVYYCAADEYAQRDLGYWGQGTQVTVSS | low polyreactivity
40 | QVQLVESGGGLVQAGGSLRLSCAASGRNFEIYAMGWYRQAPGKERELVAAISWRGVSTYYADSVKGRFTISRDNAKNTVYLQMNSLKPEDTAVYYCNKDVDYFWYVEYDYWGQGTQVTVSS | low polyreactivity
41 | QVQLVESGGGLVQAGGSLRLSCAASGSIFFSNAMGWYRQAPGKERELVAAITSTGGSTYYADSVKGRFTISRDTAKNTVYLQLNSLKPEDTAVYYCAAASRRGYYYWGQGTQVTVSS | high polyreactivity
42 | QVQLVESGGGLVQAGGSLRLSSAASGRIFAYNAMGWYRQAPGKEREFVAAITLGTGRTYYADSVKGRFTISRDNAKNTDYLQMNSLKAEDTAVYYCAARRVRGDVDYWYIYDYWGQGTQVTVSS | high polyreactivity
43 | QVQLVESGGGLVQAGGSLRLSCAASGNIFVEYAMGWYRQAPGKERELVAAITNSGGRTHYADSVKGRFTISRDNAKNTVYLQMNSLKPEDTAVYYCAAPTKYRSRRYYWGQGTQVTVSS | high polyreactivity
